Literature values as cited in PMC5472698.

Biological target: CD21 (Homo sapiens) (UniProt P20023)
Sequence (P20023 21-1033): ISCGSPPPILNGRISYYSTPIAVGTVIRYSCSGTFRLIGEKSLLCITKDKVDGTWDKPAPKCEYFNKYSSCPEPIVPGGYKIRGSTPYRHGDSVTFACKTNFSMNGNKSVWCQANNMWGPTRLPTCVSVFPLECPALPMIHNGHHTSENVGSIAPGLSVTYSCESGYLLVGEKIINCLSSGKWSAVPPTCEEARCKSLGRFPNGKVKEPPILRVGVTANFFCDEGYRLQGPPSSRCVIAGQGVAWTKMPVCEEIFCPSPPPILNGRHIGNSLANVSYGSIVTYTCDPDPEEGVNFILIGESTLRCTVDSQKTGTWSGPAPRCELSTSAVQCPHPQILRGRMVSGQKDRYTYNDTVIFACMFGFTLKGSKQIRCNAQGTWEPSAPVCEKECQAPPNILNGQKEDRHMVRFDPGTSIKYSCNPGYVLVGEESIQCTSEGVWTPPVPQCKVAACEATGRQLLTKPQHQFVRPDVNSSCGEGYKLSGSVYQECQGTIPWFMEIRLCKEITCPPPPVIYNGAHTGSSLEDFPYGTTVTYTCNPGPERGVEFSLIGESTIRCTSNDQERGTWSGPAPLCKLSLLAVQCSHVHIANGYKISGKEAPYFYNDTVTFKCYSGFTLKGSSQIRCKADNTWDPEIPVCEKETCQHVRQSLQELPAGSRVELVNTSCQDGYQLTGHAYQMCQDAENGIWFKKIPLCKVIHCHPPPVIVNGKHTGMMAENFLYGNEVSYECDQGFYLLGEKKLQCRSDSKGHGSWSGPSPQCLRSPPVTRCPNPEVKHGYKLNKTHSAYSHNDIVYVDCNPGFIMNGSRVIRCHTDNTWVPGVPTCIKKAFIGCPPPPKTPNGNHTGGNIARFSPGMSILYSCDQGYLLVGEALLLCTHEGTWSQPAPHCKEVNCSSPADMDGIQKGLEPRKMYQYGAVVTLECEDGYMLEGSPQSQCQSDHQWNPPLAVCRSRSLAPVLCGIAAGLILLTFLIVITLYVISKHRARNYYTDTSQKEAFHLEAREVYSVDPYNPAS

gp350/220, sequence (P03200 whole entry): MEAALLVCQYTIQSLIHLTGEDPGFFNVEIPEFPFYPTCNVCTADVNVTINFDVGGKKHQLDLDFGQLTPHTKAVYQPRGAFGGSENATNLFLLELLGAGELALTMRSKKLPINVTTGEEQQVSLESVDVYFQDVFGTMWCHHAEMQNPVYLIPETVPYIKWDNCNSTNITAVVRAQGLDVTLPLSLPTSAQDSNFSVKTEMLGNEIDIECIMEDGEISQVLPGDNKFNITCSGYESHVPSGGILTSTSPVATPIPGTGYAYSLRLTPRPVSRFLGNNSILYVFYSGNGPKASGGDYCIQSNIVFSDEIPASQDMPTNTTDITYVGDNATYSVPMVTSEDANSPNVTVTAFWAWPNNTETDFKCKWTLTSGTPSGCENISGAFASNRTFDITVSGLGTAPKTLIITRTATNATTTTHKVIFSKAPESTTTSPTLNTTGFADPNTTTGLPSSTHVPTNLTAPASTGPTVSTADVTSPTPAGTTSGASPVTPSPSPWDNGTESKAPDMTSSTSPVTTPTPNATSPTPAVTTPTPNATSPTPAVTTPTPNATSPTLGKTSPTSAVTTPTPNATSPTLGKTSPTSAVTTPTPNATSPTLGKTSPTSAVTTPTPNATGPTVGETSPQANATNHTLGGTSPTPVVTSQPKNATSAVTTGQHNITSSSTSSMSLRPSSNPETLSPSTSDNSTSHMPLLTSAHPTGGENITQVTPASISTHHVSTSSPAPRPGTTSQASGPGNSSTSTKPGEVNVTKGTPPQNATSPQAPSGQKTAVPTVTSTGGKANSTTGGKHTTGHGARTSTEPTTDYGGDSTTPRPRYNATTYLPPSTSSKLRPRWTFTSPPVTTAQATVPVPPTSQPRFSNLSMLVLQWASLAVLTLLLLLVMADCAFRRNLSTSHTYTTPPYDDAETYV

In the case of gp350/220 (from UniProt P03200), the Kd is given as 12 nM.
